This data set in a line: yeast display, Sf9 membrane polyspecificity reagent, FACS + sequencing; frameworks hold sequencing errors. In outline:
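In a synthetic yeast display library (Saccharomyces cerevisiae BJ5465), nanobody expression was induced with galactose for 36–48 hours. FACS gates were set low and high (top ~1%) using anti-HA fluorescence for expression and streptavidin fluorescence for binding of the Sf9 membrane reagent. Each polyreactivity label is drawn from the gate of origin.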
Turning to “QVQLVDSGGGLVQAGGSLRLSCAASGYSFYFYAMGWYRQAPGKERELVAAITGGGTTSYADSVKGRFTISRDNAKNTVYLQMNSLKPEDTAVYYCNVLFADKSDYWGQGTLVTVSS”, the “polyreactivity (PSR sort gate)” value was “low polyreactivity”.

For the sequence “QVQLVDSGGGLVQAGGSLRLSCAASGYTFDRYAMGWYRQAPGKERELVAAISVRGGRTHYADSVKGRFTISRDNAKNTVYLQMNSLKPEDTAVYYCNKDSKGGYSVPHDYWGQGTQVTVSS”, the “polyreactivity (PSR sort gate)” value is “low polyreactivity”.

Turning to “QVQLVDSGGGLVQAGGSLRLSCAASGYTLSVNAMGWYRQAPGKERELVATIDFGGGSTYYADSVKGRFTISRDNAKNTVYLQMNSLKPEDTAVYYCNAHDFGFYRFSLPGYDYWGQGTQVTVSS”, the “polyreactivity (PSR sort gate)” value was “low polyreactivity”.

As for “QVQLVDSGGGLVQAGGSLRLSCAASVFTFYCNAMGWYRQAPGKERELVAAITSTGNTYYADSVKGRFTISRDNAKNTVYLQMNSLKPEDTAVYYCARRGDILYDYWGQGTQVTVSS”, the “polyreactivity (PSR sort gate)” value is recorded as “low polyreactivity”.

Take “QVQLVDSGGGLVQAGGSLRLSCAPYVLIFWAYAMGWYRQAPGKERELVAAISWSGARTYYADSVMGRFTISRDHAKHTVYLQMNSLKPEDTAVYYCAVGVQSSKRHDYWGQGTQVTVSS”: the “polyreactivity (PSR sort gate)” value is “high polyreactivity”.

For the sequence “QVQLVDSGGGLVQAGGSLRLSCPASGRTFFNNVMGWSRQAPGKEREWVAAISKSGTRTYYADSVKGRFTISRDNAKNTVYLQMNSLKPEDTAVYYCATGPYLRTSRYYYWGQGTQVTVSS”, the “polyreactivity (PSR sort gate)” value is recorded as “high polyreactivity”.

For the sequence “QVQLVDSGGGLVQAGGSLRLSCSASGSILGAYAMGWYRQSPGKERELVASISWSGGSTYYADSVKGRFTISRDNAKNTVYLQMNSLKPEDTAGYYCAASGIRYWLPYDYWGQGTQVTVSS”, the “polyreactivity (PSR sort gate)” value is “high polyreactivity”.

As for “QVQLVDSGGGLVQAGGSLRLSSAASGRTFRYYTMGWYRQAPGKERELVAGISRSGANTYYADSVKGRFTISRDNAKNSVYLQMNSLKPEDTAVYYCNAVYGTYDWGQGTQVTVSS”, the “polyreactivity (PSR sort gate)” value is “high polyreactivity”.

On to “QVQLVDSGGGLVQAGGSLRLSWAASGSTLYVNAIGFYRQAPGKERELVSAISWSGGSTNYADSVKGRFTISRDNAKNTVYLQMNSQKPEDTSVYYCAVYYRRWFSRYDYWGQGTQVTVSS”, for which the “polyreactivity (PSR sort gate)” value was “low polyreactivity”.

In the case of “QVQLVDSGGGLVQAGGSLRLTCAASGRTFRYNAMGWYRQAPGKERDLVARISRGGSPYADSVKGRFTISRDNAKNTVYLQMNSLKPEDSAVYYCAADPTKHNQSEYYYWGQGTQVNVSS”, the “polyreactivity (PSR sort gate)” value was “low polyreactivity”.

In the case of “QVQLVDSGGGLVQAGGSLRLTCAASGSTFDTNSVGWYRQAPGKERELVAAITSGGNTYADSVKGRFTISRDNAKNTVYFQMNSLKAEDTAVYYCAAEDVFTCWYDYWGQGTQVNVSS”, the “polyreactivity (PSR sort gate)” value is “low polyreactivity”.

Take “QVQLVDSGGGLVQAGGSLRLTCDASGFIILYYAMRWYRQEPGKERELVADISRGADTKYADSVKGRFTISRDNAKNTVYLQMNSLKPEDTAVYYCATDITTFCFPYPGVELGYWGQGTQVTVSS”: the “polyreactivity (PSR sort gate)” value was “low polyreactivity”.

For “QVQLVDSGGGLVQAGGSLRLTSAASGRIFVRNAMGWYRPAPGKERELVAASSWSSGGTYYADSVKGRFTISRDNAKNRVYLQMNSLKPEETAVYSCIADTSRAGVYWGQGTQVTVSS”, the “polyreactivity (PSR sort gate)” value is given as “low polyreactivity”.

For “QVQLVDSGGGLVQAGGSLSLSCAASGNIFDYNVMGWYRQAPGKERELVAAITASAVRTYYADSVKGRFTISRDNAKNTVYLQMNSLKPEDIAVYYCGKRRIVRQRSYYYWGQGTQVTVSS”, the “polyreactivity (PSR sort gate)” value is “low polyreactivity”.

“QVQLVDSGGGLVQAGGSLSLSCAASGRIFPYNAMGWYRQAPGKERELVAGISRTGGSTYYADSVKGRFTISRDNAKNTVYLQKNCLKTEDTAAYYCGARPGAHPDRLDYWGQGTQVTVSS”: the “polyreactivity (PSR sort gate)” value is reported as “low polyreactivity”.

In the case of “QVQLVDSGGGLVQAGGTLRLSCAASGFTFIYYAMGWYRQAPGKERELVAAISASGGSTYYADSVKGRFTISRDNAKNTVYLQMNSLKPEDTAVYYCNKYWRKPPAGGYYYWGQGTQVTVSS”, the “polyreactivity (PSR sort gate)” value is on record as “high polyreactivity”.

(Values after the nanobody polyreactivity screen of Harvey et al. (2022).)
